The record followed here is publication doi:10.1101/2021.08.02.454546 (bioRxiv, 2021).

For test [1], the target named is T1, shorter version of peptide #289 (1153-DKYFKNHTSPD-1163) (SARS-CoV-2 (spike 1153-1163, matches …)).
T1 chain: DKYFKNHTSPD
The test is described as follows: SPR. As to conditions: both partners purified.

Test [2] deals with T2, SARS-CoV-2 S2 peptide #288 (1149-KEELDKYFKNHTSPD-1163) (SARS-CoV-2 (spike 1149-1163, matches …)).
T2 chain: KEELDKYFKNHTSPD
Kind of test: ELISA. As to conditions: both partners purified. (In an ELISA, binding on a coated surface is turned into a signal by an enzyme label.)

B1: CV3–25 IgG (antibody, V domains shown)
VH: EVQLVESGAEVKKPGESLKISCKGSGYTFTRYWIGWVRQMPGKGLEWMGIIYPGDSDTRYSPSFQGHVTISADKSISTAYLQWNSLKASDTAMYYCARLPQYCSNGVCQRWFDPWGQGTLVTVSS
VL: EIVLTQSPSSVSASVGDRVTITCRASQGISSWLAWYQQKPGKAPKLLIYAASSLQSGVPSRFSGSGSGTDFTLTISSLQPEDFATYYCQQGNSFPYTFGQGTNLEIK
In general, Kd refers to a measure of binding affinity in units of concentration. In test [1], B1 yielded a Kd of approximately 1 µM. Moreover, in test [2], the binding result was “binds”.
